Columns and labels:
[1] = biological target: LFY-DBD in the purified ASK1-UFO-LFY-DBD complex (Arabidopsis thaliana); test: SEC-MALS
[2] = biological target: T1, UFO in the purified ASK1-UFO-LFY-DBD complex (Arabidopsis thaliana, UniProt Q39090 1-442); test: SEC-MALS
T1 sequence: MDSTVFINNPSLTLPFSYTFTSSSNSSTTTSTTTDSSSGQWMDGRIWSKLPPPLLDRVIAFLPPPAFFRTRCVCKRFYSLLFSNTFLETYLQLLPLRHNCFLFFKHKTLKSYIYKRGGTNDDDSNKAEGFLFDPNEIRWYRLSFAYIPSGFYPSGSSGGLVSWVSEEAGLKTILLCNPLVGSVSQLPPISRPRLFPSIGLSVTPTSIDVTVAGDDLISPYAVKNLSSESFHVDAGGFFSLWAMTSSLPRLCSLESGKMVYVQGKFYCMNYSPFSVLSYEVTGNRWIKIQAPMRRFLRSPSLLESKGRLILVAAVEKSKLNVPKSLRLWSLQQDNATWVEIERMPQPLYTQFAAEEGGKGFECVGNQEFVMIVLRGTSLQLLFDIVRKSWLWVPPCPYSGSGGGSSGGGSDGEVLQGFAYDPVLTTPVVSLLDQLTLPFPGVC

B1: UFO in the purified ASK1-UFO-LFY-DBD complex (natural protein)
chain: MDSTVFINNPSLTLPFSYTFTSSSNSSTTTSTTTDSSSGQWMDGRIWSKLPPPLLDRVIAFLPPPAFFRTRCVCKRFYSLLFSNTFLETYLQLLPLRHNCFLFFKHKTLKSYIYKRGGTNDDDSNKAEGFLFDPNEIRWYRLSFAYIPSGFYPSGSSGGLVSWVSEEAGLKTILLCNPLVGSVSQLPPISRPRLFPSIGLSVTPTSIDVTVAGDDLISPYAVKNLSSESFHVDAGGFFSLWAMTSSLPRLCSLESGKMVYVQGKFYCMNYSPFSVLSYEVTGNRWIKIQAPMRRFLRSPSLLESKGRLILVAAVEKSKLNVPKSLRLWSLQQDNATWVEIERMPQPLYTQFAAEEGGKGFECVGNQEFVMIVLRGTSLQLLFDIVRKSWLWVPPCPYSGSGGGSSGGGSDGEVLQGFAYDPVLTTPVVSLLDQLTLPFPGVC
[1]
  stoichiometry N: 1

B2: ASK1 in the purified ASK1-UFO-LFY-DBD complex (natural protein)
chain: MSAKKIVLKSSDGESFEVEEAVALESQTIAHMVEDDCVDNGVPLPNVTSKILAKVIEYCKRHVEAAASKAEAVEGAATSDDDLKAWDADFMKIDQATLFELILAANYLNIKNLLDLTCQTVADMIKGKTPEEIRTTFNIKNDFTPEEEEEVRRENQWAFE
[2]
  stoichiometry N: 1

— publication doi:10.1101/2022.06.14.495942 (bioRxiv, 2022)
